In test [1] the test system is chondrocyte aggregate cultures. Description: Chondrocyte cytokine induction assay (Proteome Profiler Cytokine Arrays). The class given is cell-based, human. As to conditions: for Cytokines released by chondrocytes in response: LPS, medium alone. From the text:
Chondrocyte aggregate cultures are used which form an extensive extracellular matrix with components characteristic of articular cartilage including aggrecan and type II collagen as described in Welter, J. et al, BioTechniques, 2007, 42(6):732-737; and Solchaga, L. A. et al., Chondrogenic Differentiation of Bone Marrow-Derived Mesenchymal Stem Cells: Tips and Tricks, 2011, 698:253-278.
To form the chondrocyte aggregate cultures, lx10^6 human mesenchymal stem cells (passage one, Lonza, catalog #PT-2501) were plated in a T150 flask (Corning) and cultured in growth media: mesenchymal stem cell basal media (MSCBM, Lonza, #PT-3238), mesenchymal growth supplements (SingleQuots, Lonza, #PT-4105), and 5 ng/ml recombinant human […] (Shenandoah Biotechnology). When confluent, cells were trypsin-released (0.5% trypsin EDTA, Gibco), expanded to two T150 flasks and fed with growth media every three days. When confluent, cells were harvested, resuspended in fresh growth media containing 5% DMSO and aliquots of 1×10^6 cells were cryopreserved in liquid nitrogen.
Human mesenchymal stem cells were used to promote chondrogenesis and chondrocyte aggregate formation for use in these studies. Two vials of passage three cryopreserved cells were thawed, plated in growth media in two T150 flasks and then expanded to six T150 flasks as above. Cells were harvested (0.5% trypsin EDTA, Gibco), pooled, enumerated and induced to chondrogenic differentiation as follows. Cells were resuspended in defined chondrocyte differentiation media: high glucose DMEM (Gibco), 50 μg/ml ascorbic acid-2-phosphate (Sigma), 39.3 ng/ml dexamethasone (Sigma), […] L-proline (Sigma), ITS+Premix (BD Biosciences), 10 ng/ml transforming growth factor β-3 (Shenandoah Biotechnology) and 30 μg/ml gentamicin sulfate+15 ng/ml amphotericin-B (GA-1000, Lonza, #PT-4504E). High density aggregates were obtained by plating, on average, 3×10^5 cells per well in a conical bottom 96 well plate (Thermo Scientific), pelleting by centrifugation (5 minutes at 600 g), and incubation at 37° C. and 5% CO2. Pellets formed coherent spherical aggregates by day two of culture. After seven days, wide bore tips were used to transfer aggregates to V-bottom 96 well plates (Corning). Aggregates were maintained in differentiation media at 37° C. and 5% CO2 for 3-5 weeks and fed every two days until experimentation.
For chondrocyte cytokine induction assays, 24 hours prior to experimentation, dexamethasone containing media was removed, aggregates were rinsed with DPBS (Gibco) and dexamethasone-free differentiation media was added. For experimentation, aggregates were transferred to 24 well plates (24 aggregates per condition), spent media was removed and fresh warmed dexamethasone-free media containing samples was added. Aggregates were then incubated at 37° C. and 5% CO2 for two days.
Recombinant BbHtrA or BbHtrA^S226A was added to culture medium and incubated with chondrocyte aggregate cultures. BbHtrA and BbHtrA^S226A were purified using an E. coli system and was expected to contain endotoxin which would have a stimulatory effect on the chondrocytes. To control for endotoxin contamination (lipopolysaccharide, LPS), an endotoxin removal kit (Noragen) was used to remove the bulk of LPS from recombinant BbHtrAs. The relative toxicity of the amount remaining in the BbHtrA and BbHtrA^S226A samples was determined by a chromogenic Limulus Amoebocyte Lysate (LAL) method (Lonza, Walkersville, Md.). Prior to addition to aggregates, LPS (44 ng, 200 EU), BbHtrA^WT (20 μg, 27.9 EU LPS) and BbHtrA^S226A ([…], 1.99 EU LPS) were incubated in 1 mg/ml polymyxin B sulfate (Sigma) on ice for 30 min with occasional mixing. Warmed dexamethasone-free medium was then added to each test condition to a final volume of 1 ml. Control aggregates were maintained in untreated medium also containing polymyxin B sulfate. The final concentration for all test conditions was 60 μg/ml polymyxin B sulfate. […]

The target in test [2] is T1, β-casein (Bos taurus, UniProt P02666).
T1 construct: purchased Bio-Rad
T1 sequence (P02666 16-224): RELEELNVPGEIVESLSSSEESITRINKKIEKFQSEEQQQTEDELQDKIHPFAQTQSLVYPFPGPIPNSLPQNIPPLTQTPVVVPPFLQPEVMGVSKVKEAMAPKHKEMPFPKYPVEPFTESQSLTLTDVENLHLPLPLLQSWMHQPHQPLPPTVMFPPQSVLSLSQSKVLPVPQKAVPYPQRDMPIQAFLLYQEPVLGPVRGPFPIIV
Description: β-casein zymography. The following applies: 1 μg recombinant protein, 12% β-casein zymogram gel, developed 40 h at 37° C., FIG. 12A. The class given is biochemical. How it is done:
Proteolytic activity was studied by zymography of lysates of the prototype strains of each of the major genospecies of Borrelia that cause Lyme disease. Borrelia burgdorferi (passage 4, non-clonal, infectious strain B31), Borrelia garinii (unknown passage, infectious strain FR-20047) and Borrelia afzelii (unknown passage, infectious strain ACA-1) were grown in Barbour-Stoenner-Kelly media (BSK II) supplemented with 6% rabbit serum at 37° C. Borrelial lysates (˜1×10^8 B. garinii, B. afzelii; ˜5×10^7 B. burgdorferi) and recombinant BbHtrA proteins (1 μg) were subjected to SDS-PAGE electrophoresis using 12% β-casein Zymogram Ready Gels (Bio-Rad). Following electrophoresis, the gels were renatured in 2.5% Triton X-100 (Sigma) for 60 min at 37° C. with a buffer change at 15 min. The gels were developed in Zymogram Development Buffer (BioRad) for 40 h at 37° C. with a buffer change at 15 min. Gels were stained (0.5% Coomassie Brilliant Blue R-250, 40% methanol, 10% glacial acetic acid) for 60 min at room temperature and then destained (40% methanol, 10% glacial acetic acid).

Where [3] appears, read: spent medium of chondrocyte aggregates after 48 hours, cytokine array, background subtracted.

B1: BbHtrA: Recombinant wild type B. burgdorferi HtrA serine protease, mature protein amino acids 38-474, expressed in E. coli (SEQ ID NO:1, 9) (protein, listed as Borrelia burgdorferi)
chain: EEKDNTVRALQDSFREVSKKILPSSVEVHATGVIKQSFPIPFFFFDMPEFDSERKSNWAGSGVIIGRDSQKKSLFYVVTNSHVVDKATELEVVSYDKKKHKAKLIGKDEKKDIALISFESDDATIKVADLGDSDKLEIGDWVMAVGSPFQFSFTVTAGIVSGLQRSANPNLQSRNLFIQTDAAINRGNSGGPLVNIKGEVIGINAWIASNSGGNIGLGFAIPVNNIKSTVDFFLKGKKIESAWLGISFYPLKTRDSEVLKSLGVESNDVSAAIIASLYPGSPAVKSGLRAGDIIMKVNGVSMSVFQDVTSYISDFYAGEKVNVEILRGNVKKNIEIVLAVRPKDKELSSSKMLPGFVVYPLVEDIKAQLNLRNWIKGVVVDYIDKNLASNIKMKSGDVILSVNSKSVSNLREFYDALEVGKNTYKILRGNDSFKITF
As to B1, the “Cytokines released by chondrocytes in response” value in test [1] (additional experiments, FIG. 10: BbHtrA^WT, BbHtrA^S226A) was “CCL5, CCL2, CXCL1, CCL1, sICAM-1, IL-6 and IL-8”. For the same molecule, the “Cytokines released by chondrocytes in response” value in test [1] (initial experiments, FIG. 9A: BbHtrA, heat denatured BbHtrA) was “CXCL1, CCL1, sICAM-1, IL-6, IL-8 and CCL2”. Besides, in test [1] (setting [3]), the “GROα/CXCL1 pixel density, Mean” value came to 1.349; the “I-309/CCL1 pixel density, Mean” value was found to be 0.535; the “IL-6 pixel density, Mean” value was 0.627; the “IL-8 pixel density, Mean” value amounted to 1.581. Also, in test [1] (setting [3]), the “MCP-1/CCL2 pixel density, Mean” value came out at 0.452; the “RANTES/CCL5 pixel density, Mean” value was 0.736; the “sICAM-1/CD54 pixel density, Mean” value is 0.890. In addition, the “Proteolytic activity against β-casein (clearing around the protein band)” value in test [2] is on record as “proteolytically active”.

(Values after patent US9383360B2, “Compositions and methods relating to lyme disease” (The United States of America, as represented by the …, priority 2012, dated 2016).)
